Consider 3 molecules from PMC12776367 (Journal of the American Society of Nephrology : JASN, 2025).

In general, Kd refers to the constant that tells how readily two partners part at equilibrium. Higher therefore signals weaker binding.

In assay [1] the target is T1, mouse vitronectin (ab92727, Abcam) (mouse, UniProt P29788 20-478).
T1 sequence (looked up): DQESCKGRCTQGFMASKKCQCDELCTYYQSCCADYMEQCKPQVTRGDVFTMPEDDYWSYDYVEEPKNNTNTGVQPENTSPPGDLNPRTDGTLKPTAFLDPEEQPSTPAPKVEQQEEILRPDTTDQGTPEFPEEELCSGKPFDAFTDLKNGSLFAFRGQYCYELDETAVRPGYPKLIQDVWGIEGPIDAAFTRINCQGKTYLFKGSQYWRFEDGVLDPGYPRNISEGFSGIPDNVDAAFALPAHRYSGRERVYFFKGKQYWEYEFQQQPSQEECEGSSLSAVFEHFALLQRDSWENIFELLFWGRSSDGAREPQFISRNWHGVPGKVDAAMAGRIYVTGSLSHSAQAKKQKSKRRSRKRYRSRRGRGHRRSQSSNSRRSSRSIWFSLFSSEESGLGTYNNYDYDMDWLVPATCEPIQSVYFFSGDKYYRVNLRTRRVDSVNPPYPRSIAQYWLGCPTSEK
Put plainly: BLI.

Assay [2] concerns the target human vitronectin (2349-VN, R&D Systems) (human, UniProt P04004 20-478). Put plainly: BLI. A general note: Biolayer interferometry detects binding as a change in optical thickness at a sensor tip.

Chain of human vitronectin (2349-VN, R&D Systems) (P04004 20-478): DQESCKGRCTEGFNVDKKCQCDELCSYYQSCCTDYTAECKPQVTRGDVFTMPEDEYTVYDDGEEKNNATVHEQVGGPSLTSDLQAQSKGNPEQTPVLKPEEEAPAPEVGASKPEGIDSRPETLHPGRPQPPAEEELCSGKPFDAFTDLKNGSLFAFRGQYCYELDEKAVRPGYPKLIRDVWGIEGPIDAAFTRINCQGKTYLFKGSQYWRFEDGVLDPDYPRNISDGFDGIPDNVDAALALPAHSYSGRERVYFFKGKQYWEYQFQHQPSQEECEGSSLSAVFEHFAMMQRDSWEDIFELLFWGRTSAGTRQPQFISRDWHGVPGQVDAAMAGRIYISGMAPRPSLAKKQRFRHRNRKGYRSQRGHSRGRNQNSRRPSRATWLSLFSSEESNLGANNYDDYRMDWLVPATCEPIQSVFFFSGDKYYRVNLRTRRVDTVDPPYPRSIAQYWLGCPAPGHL

B1: His-tagged mouse testican-2 (MBS1458329, MyBioSource) (natural protein, UniProt Q9ER58 23-423, looked up)
chain: EGDAKGLKEGETPGNFMEDEQWLSSISQYSGKIKHWNRFRDEVEDDYIKSWEDNQQGDEALDTTKDPCQKVKCSRHKVCVAQGYQRAMCISRKKLEHRIKQPSLKLHGGKDSVCKPCHMAQLASVCGSDGHTYSSVCKLEQQACLSSKQLAVRCEGPCPCPTEQSTASTTDSKSETCTGQDLADLGDRLRDWFQLLRENSKQNGSANSATNPAGLDKSLGASCKDSIGWMFSKLDTSGDLFLDQTELAAINLDKYEVCIRPFFNSCDTYKDGRVSTAEWCFCFWREKPPCLAELERTQIQEAAKKKPGVFIPSCDEDGYYRKMQCDQSRGDCWCVDQLGLELTGTRMHGTPDCDDIVGFSGDFGSGVGWEDEEEKETEEAGEEAEEEEGEAGEADDGGYIW
With B1, in assay [1], binding was put at a Kd of 63.7 ± 2.3 nM.

B2: His-tagged human testican-2 (2328-PI, R&D Systems) (natural protein, UniProt Q92563 23-424, looked up)
chain: EGDAKGLKEGETPGNFMEDEQWLSSISQYSGKIKHWNRFRDEVEDDYIKSWEDNQQGDEALDTTKDPCQKVKCSRHKVCIAQGYQRAMCISRKKLEHRIKQPTVKLHGNKDSICKPCHMAQLASVCGSDGHTYSSVCKLEQQACLSSKQLAVRCEGPCPCPTEQAATSTADGKPETCTGQDLADLGDRLRDWFQLLHENSKQNGSASSVAGPASGLDKSLGASCKDSIGWMFSKLDTSADLFLDQTELAAINLDKYEVCIRPFFNSCDTYKDGRVSTAEWCFCFWREKPPCLAELERIQIQEAAKKKPGIFIPSCDEDGYYRKMQCDQSSGDCWCVDQLGLELTGTRTHGSPDCDDIVGFSGDFGSGVGWEDEEEKETEEAGEEAEEEEGEAGEADDGGYIW
As to B2, in assay [2], the Kd is 37.4 ± 0.6 nM.

B3: deglycosylated human testican-2 (natural protein, UniProt Q92563 23-424, looked up)
chain: EGDAKGLKEGETPGNFMEDEQWLSSISQYSGKIKHWNRFRDEVEDDYIKSWEDNQQGDEALDTTKDPCQKVKCSRHKVCIAQGYQRAMCISRKKLEHRIKQPTVKLHGNKDSICKPCHMAQLASVCGSDGHTYSSVCKLEQQACLSSKQLAVRCEGPCPCPTEQAATSTADGKPETCTGQDLADLGDRLRDWFQLLHENSKQNGSASSVAGPASGLDKSLGASCKDSIGWMFSKLDTSADLFLDQTELAAINLDKYEVCIRPFFNSCDTYKDGRVSTAEWCFCFWREKPPCLAELERIQIQEAAKKKPGIFIPSCDEDGYYRKMQCDQSSGDCWCVDQLGLELTGTRTHGSPDCDDIVGFSGDFGSGVGWEDEEEKETEEAGEEAEEEEGEAGEADDGGYIW
modifications: deglycosylated (Protein Deglycosylation Mix II kit)
Regarding B3, in assay [2], the Kd worked out at 348 ± 12.4 nM.
